Reference: publication PMC10382678

Molecular target: ectoLRP4-AP (alkaline phosphatase-conjugated ectodomain of mouse LRP4) (mouse) (UniProt Q8VI56)
Assay: ELISA; plate-binding assay, competition: 500 nM purified recombinant neural agrin added to 25 nM ectoLRP4-AP on ColQ-coated wells; agrin as the competitor that binds LRP4

Chain of ectoLRP4-AP (alkaline phosphatase-conjugated ectodomain of mouse LRP4) (mouse) (Q8VI56 21-1725): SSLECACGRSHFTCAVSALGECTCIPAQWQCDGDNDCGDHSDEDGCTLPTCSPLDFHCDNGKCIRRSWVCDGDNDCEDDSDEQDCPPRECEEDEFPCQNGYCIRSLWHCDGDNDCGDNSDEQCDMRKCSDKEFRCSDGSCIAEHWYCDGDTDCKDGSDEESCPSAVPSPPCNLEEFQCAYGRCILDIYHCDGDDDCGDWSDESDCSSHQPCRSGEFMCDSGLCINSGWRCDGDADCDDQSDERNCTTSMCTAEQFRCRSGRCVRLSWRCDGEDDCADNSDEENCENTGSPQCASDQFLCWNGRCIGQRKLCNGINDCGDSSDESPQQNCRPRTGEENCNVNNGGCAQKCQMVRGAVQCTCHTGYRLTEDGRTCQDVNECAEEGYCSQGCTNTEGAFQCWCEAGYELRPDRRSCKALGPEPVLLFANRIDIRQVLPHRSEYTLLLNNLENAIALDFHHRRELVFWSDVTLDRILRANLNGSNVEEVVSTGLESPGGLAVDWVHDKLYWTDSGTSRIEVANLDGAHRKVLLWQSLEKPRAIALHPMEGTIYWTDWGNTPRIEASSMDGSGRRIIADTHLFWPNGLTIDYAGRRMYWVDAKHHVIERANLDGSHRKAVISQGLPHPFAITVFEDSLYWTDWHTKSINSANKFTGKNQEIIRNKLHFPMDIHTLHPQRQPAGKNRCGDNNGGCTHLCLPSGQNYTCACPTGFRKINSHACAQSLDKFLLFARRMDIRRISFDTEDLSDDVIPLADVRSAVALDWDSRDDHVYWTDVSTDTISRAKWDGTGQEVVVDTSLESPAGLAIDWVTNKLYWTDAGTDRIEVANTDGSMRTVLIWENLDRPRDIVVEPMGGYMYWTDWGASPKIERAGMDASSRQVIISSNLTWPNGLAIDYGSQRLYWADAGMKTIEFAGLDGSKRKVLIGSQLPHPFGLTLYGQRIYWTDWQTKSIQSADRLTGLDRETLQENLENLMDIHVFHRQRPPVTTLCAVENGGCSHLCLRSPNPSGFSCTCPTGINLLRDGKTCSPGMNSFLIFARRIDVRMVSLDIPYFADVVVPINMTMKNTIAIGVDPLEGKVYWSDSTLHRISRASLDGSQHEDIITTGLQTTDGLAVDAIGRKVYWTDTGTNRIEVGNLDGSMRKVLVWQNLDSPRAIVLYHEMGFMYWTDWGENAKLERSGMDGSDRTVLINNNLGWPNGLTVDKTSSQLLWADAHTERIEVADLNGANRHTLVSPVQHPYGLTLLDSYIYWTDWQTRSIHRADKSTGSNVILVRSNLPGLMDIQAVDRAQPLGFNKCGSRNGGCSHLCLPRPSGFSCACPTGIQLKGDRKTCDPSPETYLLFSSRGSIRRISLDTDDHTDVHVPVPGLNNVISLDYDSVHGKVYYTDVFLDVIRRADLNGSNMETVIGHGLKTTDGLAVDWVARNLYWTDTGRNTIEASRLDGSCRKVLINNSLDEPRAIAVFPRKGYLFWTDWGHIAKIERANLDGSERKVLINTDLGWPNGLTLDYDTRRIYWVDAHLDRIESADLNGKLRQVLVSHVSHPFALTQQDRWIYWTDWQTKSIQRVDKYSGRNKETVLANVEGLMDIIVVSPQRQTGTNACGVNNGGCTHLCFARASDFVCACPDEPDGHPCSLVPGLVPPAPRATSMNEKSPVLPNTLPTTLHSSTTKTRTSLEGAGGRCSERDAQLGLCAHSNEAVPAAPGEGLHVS

percent reduction of ectoLRP4-AP (25 nM) binding to ColQ by 500 nM agrin: > 50%
Substance: recombinant rat neural agrin (Sf21-derived C-terminal agrin, His-tagged, R&D Systems) (from UniProt P25304 1-1959) (ligand)
